Reference: US20230063794A1, “STAPLED TRIAZOLE CO-AGONISTS OF THE GLUCAGON AND GLP-1 RECEPTORS” (Merck Sharp & Dohme LLC, priority 2019, published 2023)
Starred links: 1 amine or outer side, 2 acyl side, 3 side chain; linkers in the order of their positions; H or OH if unused. Positions of bridges follow the written chain, without caps; N, C: chain ends. Non-standard residues stand in square brackets, D forms with d. Groups on a side chain read outwards from the residue. No end group written: not given here. *: point of attachment. Peg3N3Ala = O-(2-(2-(2-azidoethoxy)ethoxy)ethyl)-L-serine, [N-]=[N+]=NCCOCCOCCOC[C@H](N[*:1])C(=O)[*:2]; Lys(N3) = [N-]=[N+]=NCCCC[C@H](N)C(=O)O; γGlu = O=C(O)[C@H](CCC(=O)[*:2])N[*:1]; Met(O2) = CS(=O)(=O)CC[C@H](N)C(=O)O; Palmitoyl = CCCCCCCCCCCCCCCC(=O)*; dPra = C#CC[C@@H](N)C(=O)O; Nle = CCCC[C@H](N)C(=O)O; Ac4c = NC1(C(=O)O)CCC1; Aib = CC(C)(N)C(=O)O

What was measured:
[1] = molecular target: human Glucagon receptor (GCGR) (human, UniProt P47871 26-477); experiment: cell-based or functional assay
[2] = molecular target: human GLP-1 receptor (GLP1R) (human, UniProt P43220 24-463); experiment: cell-based or functional assay

Sequence of human Glucagon receptor (GCGR) (P47871 26-477): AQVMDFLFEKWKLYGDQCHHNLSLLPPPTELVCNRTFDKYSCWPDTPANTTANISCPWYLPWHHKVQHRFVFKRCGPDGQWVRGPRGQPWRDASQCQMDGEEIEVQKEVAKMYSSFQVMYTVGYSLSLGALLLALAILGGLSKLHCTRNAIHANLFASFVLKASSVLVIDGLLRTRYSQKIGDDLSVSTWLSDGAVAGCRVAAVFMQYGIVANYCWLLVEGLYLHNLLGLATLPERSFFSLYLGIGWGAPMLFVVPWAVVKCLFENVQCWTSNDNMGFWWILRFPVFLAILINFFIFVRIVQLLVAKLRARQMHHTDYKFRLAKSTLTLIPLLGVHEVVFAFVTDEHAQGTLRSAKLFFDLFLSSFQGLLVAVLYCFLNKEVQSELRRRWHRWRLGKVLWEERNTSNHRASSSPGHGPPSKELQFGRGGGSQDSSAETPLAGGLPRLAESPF

Row | Binder | GCGR EC50 human (nM), cAMP activity assay [1] | GLP1R EC50 human (nM), cAMP activity assay [2]
1 | H[Aib]QGTFTSDK([γGlu-γGlu-Palmitoyl])SKYLD[Aib][dPra]AAQ[Lys(N3)]FVQWL[Nle]DT-NH2 (triazole 17-21) [TP841] | 0.819 nM | 0.414 nM
2 | H[Aib]QGTFTSDK([γGlu-γGlu-Palmitoyl])SKYLD[Ac4c][dPra]AAQ[Lys(N3)]FVQWL[Met(O2)]DTK-{γGlu-NH2} (triazole 17-21) [TP858] | 0.064 nM | 0.042 nM
3 | H[Aib]QGTFTSDK([γGlu-γGlu-Palmitoyl])SKYLD[Aib]RAAQDFV[dPra]WL[Met(O2)][Lys(N3)]TK-{γGlu-NH2} (triazole 24-28) [TP851] | 0.109 nM | 0.025 nM
4 | H[dS]QGTFTSDK([γGlu-γGlu-Palmitoyl])SKYLDARAA[dPra]DFV[Lys(N3)]WLLDT-NH2 (triazole 20-24) [TP732] | 0.052 nM | 0.123 nM
5 | HXQGTFTSDKSKYLDERAAXDFVXWLLDT (D-Ser at 2; pra at 20 and Nle(εN3) at 24 cyclized to a triazole containing ring; C-terminal amide) [TP531] | 0.323 nM | 0.168 nM
6 | H[dS]QGTFTSDK([γGlu-γGlu-Palmitoyl])SKYLDA[dPra]AAQ[Lys(N3)]FVQWLLDT-NH2 (triazole 17-21) [TP733] | 0.279 nM | 0.54 nM
7 | H[Aib]QGTFTSDK([γGlu-γGlu-Palmitoyl])SKYLD[Ac4c]RAA[dPra]DFV[Lys(N3)]WL[Met(O2)]DTK-{γGlu-NH2} (triazole 20-24) [TP860] | 0.077 nM | 0.042 nM
8 | H[Aib]QGTFTSDKSKYLD[Ac4c]RAAQDFV[dPra]WL[Met(O2)][Lys(N3)]TK-{γGlu-NH2} (triazole 24-28; not fully specified (residue 10); printed as HUQGTFTSDK(γEγEC16)SKYLDAcbRAAQDFVpra*WL2Nle(ϵN3)*T / KγE-NH2) [TP862] | 0.139 nM | 0.042 nM
9 | HXQGTFTSDXSKYLDARAAQDFVXWLLXT (D-Ser at 2; Lys 10 conjugated to γEγE-C16 fatty acid; pra at 24 and Nle(εN3) at 28 cyclized to a triazole containing ring; C-terminal amide) [TP835] | 0.143 nM | 0.199 nM
10 | H[Aib]QGTFTSDK([γGlu-γGlu-Palmitoyl])SKYLD[dPra]RAA[Lys(N3)]DFVQWL[Met(O2)]DTK-{γGlu-NH2} (triazole 16-20) [TP845] | 0.134 nM | 0.027 nM
11 | H[Aib]QGTFTSDKSKYLD[Aib]RAAQDFV[Lys(N3)]WLM[dPra]TK-{γGlu-NH2} (triazole 24-28) [TP532] | 1.07 nM | 0.14 nM
12 | H[Aib]QGTFTSDK([γGlu-γGlu-Palmitoyl])SKYLD[Aib]RAA[dPra]DFV[Lys(N3)]WL[Met(O2)]DTK-{γGlu-NH2} (triazole 20-24) [TP847] | 0.107 nM | 0.024 nM
13 | H[dS]QGTFTSDK([γGlu-γGlu-Palmitoyl])SKYLDA[dPra]AAQDFV[Peg3N3Ala]WLLDT-NH2 (triazole 17-24) [TP920] | 0.115 nM | 0.416 nM
14 | HXQGTFTSDXSKYLDERAAXDFVXWLLDT (D-Ser at 2; Lys 10 conjugated to γEγE-C16 fatty acid; pra at 20 and Nle(εN3) at 24 cyclized to a triazole containing ring; C-terminal amide) [TP488] | 0.04 nM | 0.042 nM
15 | HXQGTFTSDKSKYLDERAAXDFVXWLLDT (D-Ser at 2; Nle(εN3) at 20 and pra at 24 cyclized to a triazole containing ring; C-terminal amide) [TP530] | 0.06 nM | 0.03 nM
16 | H[Aib]QGTFTSDKSKYLD[Aib]RAAQDFV[dPra]WLM[Lys(N3)]TK-{γGlu-NH2} (triazole 24-28; also: lower-case v at 23 not defined) [TP533] | 5 nM | 3.11 nM
17 | HXQGTFTSDXSKYLDARAAQDFVXWLLXT (D-Ser at 2; Lys 10 conjugated to γEγE-C16 fatty acid; Nle(εN3) at 24 and pra at 28 cyclized to a triazole containing ring; C-terminal amide) [TP852] | 0.059 nM | 0.109 nM
18 | H[Aib]QGTFTSDK([γGlu-γGlu-Palmitoyl])SKYLD[dPra]RAA[Lys(N3)]DFVQWL[Nle]DT-NH2 (triazole 16-20) [TP837] | 0.048 nM | 0.042 nM
19 | H[Aib]QGTFTSDK([γGlu-γGlu-Palmitoyl])SKYLD[Aib][dPra]AAQ[Lys(N3)]FVQWL[Met(O2)]DTK-{γGlu-NH2} (triazole 17-21) [TP849] | 0.25 nM | 0.041 nM
20 | HXQGTFTSDXSKYLDERAAXDFVXWLLDT (D-Ser at 2; Lys 10 conjugated to γEγE-C16 fatty acid; Nle(εN3) at 20 and pra at 24 cyclized to a triazole containing ring; C-terminal amide) [TP487] | 0.09 nM | 0.22 nM
21 | H[dS]QGTFTSDK([γGlu-γGlu-Palmitoyl])SKYLD[dPra]RAA[Lys(N3)]DFVQWLLDT-NH2 (triazole 16-20) [TP731] | 0.03 nM | 0.034 nM
